# B1: bNAb F6 Fab (for SPR) (Fab, V domains shown)
# VH: QVQLQQWGTGLLKPSETLSLTCAVYGVSLRGYYWTWIRQSPKKGLEWIGEIDEIGRTKYSQSLRSRATLSIDTSKKQFSLRLTSVTAADMATYYCARWRLMMVDEVTRHGMDVWSQGTMVTVSS
# VL: DIVMTQSPLSLSVAPGEAASISCRSTQSLLNRNGDNYLEWYLRRPGRSPQLLIYLGSERALGVPDRFSGSGSGRDFTLKISRVEAQDVGTYYCLQTRQGAFTFGQGTKLEIK
# Biological target: X18 gp120
# Experiment: SPR
binder,measurement,value
B1,Kd,32.5 nM

# From paper PMC10403546 (2023)
